Data on 94 variants can be found in the supplement of paper PMC10567573.

B1: CHIT1 (parent)
chain: CSWKGATKQRIQDQKVPYIFRDNQ
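Note: lentivirally expressed fusions sorted by FACS into six bins by GFP to DsRed ratio, PSI derived from sequencing read proportions per bin multiplied by bin number.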

The variants in this series derive from B1. In words: protein stability index of a GFP-peptide fusion (GPS, HEK-293T) (PSI 1-6); higher = more stable. To be noted: c terminus: a fixed tail appended.
CSWKGATKQRIQDQKVPYIFRMNQ [D22M]: the protein stability index came to 2.43. Turning to CSWKGATKQRIQDQKVPYIFRNNQ [D22N], the protein stability index was determined as 2.42. With CSWKGATKQRIQDQKVPYIFRINQ [D22I], the protein stability index is 1.57. The result for CSWKGATKQRIQDQKVPYIFRKNQ [D22K] reads 2.42; that for CSWKGATKQRIQDQKVPYIFRLNQ [D22L], 2.06; that for CSWKGATKQRIQDQKVPYIFRFNQ [D22F], 1.35. In the case of CSWKGATKQRIQDQKVPYIFRVNQ [D22V], the protein stability index came out at 1.83. The result for CSWKGATKQRIQDQKVPYIFRSNQ [D22S] reads 2.42. The result for CSWKGATKQRIQDQKVPYIFRQNQ [D22Q] reads 2.33.

For CSWKGATKQRIQDQKVPYIFRRNQ [D22R], the protein stability index turned out to be 2.66. The result for CSWKGATKQRIQDQKVPYIFRANQ [D22A] reads 2.57. The result for CSWKGATKQRIQDQKVPYIFRTNQ [D22T] reads 2.18. The result for CSWKGATKQRIQDQKVPYIFRWNQ [D22W] reads 1.6; that for CSWKGATKQRIQDQKVPYIFRGNQ [D22G], 3.03; that for CSWKGATKQRIQDQKVPYIFRCNQ [D22C], 1.66. In the case of CSWKGATKQRIQDQKVPYIFRPNQ [D22P], the protein stability index is 2.22.

For the variant CSWKGATKQRIQDQKVPYIFRHNQ [D22H], the protein stability index turned out to be 1.72. In the case of CSWKGATKQRIQDQKVPYIFRENQ [D22E], the protein stability index was determined as 2.44.

For the variant CSWKGATKQRIQDQKVPYIFRDQQ [N23Q], the protein stability index came out at 2.6. The result for CSWKGATKQRIQDQKVPYIFRDDQ [N23D] reads 3.53; that for CSWKGATKQRIQDQKVPYIFRDLQ [N23L], 1.89; that for CSWKGATKQRIQDQKVPYIFRDKQ [N23K], 3.05. Take CSWKGATKQRIQDQKVPYIFRDRQ [N23R]: the protein stability index stood at 2.82.

Turning to CSWKGATKQRIQDQKVPYIFRDCQ [N23C], the protein stability index was 1.91. The result for CSWKGATKQRIQDQKVPYIFRDEQ [N23E] reads 2.54; that for CSWKGATKQRIQDQKVPYIFRDSQ [N23S], 2.2. CSWKGATKQRIQDQKVPYIFRDVQ [N23V]: the protein stability index was determined as 1.67.

Consider CSWKGATKQRIQDQKVPYIFRDAQ [N23A], for which the protein stability index was 2.76. On to CSWKGATKQRIQDQKVPYIFRDWQ [N23W], for which the protein stability index turned out to be 1.62. As for CSWKGATKQRIQDQKVPYIFRDFQ [N23F], the protein stability index came to 2.04.

Consider CSWKGATKQRIQDQKVPYIFRDIQ [N23I], for which the protein stability index stood at 2.56. The result for CSWKGATKQRIQDQKVPYIFRDYQ [N23Y] reads 2.11; that for CSWKGATKQRIQDQKVPYIFRDHQ [N23H], 1.99. The result for CSWKGATKQRIQDQKVPYIFRDPQ [N23P] reads 2.38; that for CSWKGATKQRIQDQKVPVIFRDNQ [Y18V], 3.46; that for CSWKGATKQRIQDQKVPPIFRDNQ [Y18P], 2.58. The result for CSWKGATKQRIQDQKVPWIFRDNQ [Y18W] reads 2.19; that for CSWKGATKQRIQDQKVPRIFRDNQ [Y18R], 3.08; that for CSWKGATKQRIQDQKVPNIFRDNQ [Y18N], 3.4. With CSWKGATKQRIQDQKVPMIFRDNQ [Y18M], the protein stability index stood at 2.41. The result for CSWKGATKQRIQDQKVPKIFRDNQ [Y18K] reads 3.34; that for CSWKGATKQRIQDQKVPTIFRDNQ [Y18T], 3.02; that for CSWKGATKQRIQDQKVPYIFRDNM [Q24M], 1.92.

On to CSWKGATKQRIQDQKVPYIFRDNG [Q24G], for which the protein stability index stood at 2.18. The result for CSWKGATKQRIQDQKVPYIFRDNW [Q24W] reads 1.3; that for CSWKGATKQRIQDQKVPYIFRDNK [Q24K], 3.16; that for CSWKGATKQRIQDQKVPYIFRDNL [Q24L], 2.31.

Take CSWKGATKQRIQDQKVPYIFRDNY [Q24Y]: the protein stability index is 1.61. In the case of CSWKGATKQRIQDQKVPYIFRDND [Q24D], the protein stability index turned out to be 3.34.

On to CSWKGATKQRIQDQKVPYIFRDNC [Q24C], for which the protein stability index was 3.02.

On to CSWKGATKQRIQDQKVPYIFRDNI [Q24I], for which the protein stability index came to 2.85. The result for CSWKGATKQRIQDQKVPYIFRDNH [Q24H] reads 2.06; that for CSWKGATKQRIQDQKVPYIFRDNT [Q24T], 2.75; that for CSWKGATKQRIQDQKVPYIFRDNN [Q24N], 2.45.

As for CSWKGATKQRIQDQKVPYIFRDNE [Q24E], the protein stability index is 4.3. Take CSWKGATKQRIQDQKVPYIFRDNF [Q24F]: the protein stability index came to 2.01. The result for CSWKGATKQRIQDQKVPYIFRDNV [Q24V] reads 2.16; that for CSWKGATKQRIQDQKVPYIFRDNS [Q24S], 2.82; that for CSWKGATKQRIQDQKVPYIFRDNA [Q24A], 2.29.

As for CSWKGATKQRIQDQKVPYIFRDNP [Q24P], the protein stability index was determined as 2.48. With CSWKGATKQRIQDQKVPYITRDNQ [F20T], the protein stability index was determined as 3.71. Consider CSWKGATKQRIQDQKVPYIKRDNQ [F20K], for which the protein stability index came out at 3.17. The result for CSWKGATKQRIQDQKVPYIPRDNQ [F20P] reads 3.13; that for CSWKGATKQRIQDQKVPYIRRDNQ [F20R], 3.08. The result for CSWKGATKQRIQDQKVPYIERDNQ [F20E] reads 3.99; that for CSWKGATKQRIQDQKVPYIIRDNQ [F20I], 2; that for CSWKGATKQRIQDQKVPYIHRDNQ [F20H], 3.29. Regarding CSWKGATKQRIQDQKVPYIYRDNQ [F20Y], the protein stability index is 2.74. The result for CSWKGATKQRIQDQKVPYIARDNQ [F20A] reads 3.11; that for CSWKGATKQRIQDQKVPYIVRDNQ [F20V], 3.09. Turning to CSWKGATKQRIQDQKVPYINRDNQ [F20N], the protein stability index is 2.93. The result for CSWKGATKQRIQDQKVPYISRDNQ [F20S] reads 3.13.

Regarding CSWKGATKQRIQDQKVPYIQRDNQ [F20Q], the protein stability index came to 3.61.

With CSWKGATKQRIQDQKVPYIDRDNQ [F20D], the protein stability index was found to be 3.16.

Regarding CSWKGATKQRIQDQKVPYICRDNQ [F20C], the protein stability index was found to be 3.11. On to CSWKGATKQRIQDQKVPYIGRDNQ [F20G], for which the protein stability index came to 2.87.

On to CSWKGATKQRIQDQKVPYILRDNQ [F20L], for which the protein stability index stood at 3.47.

Turning to CSWKGATKQRIQDQKVPYIMRDNQ [F20M], the protein stability index was found to be 3.53. The result for CSWKGATKQRIQDQKVPYIFADNQ [R21A] reads 3.06; that for CSWKGATKQRIQDQKVPYIFYDNQ [R21Y], 2.72. Consider CSWKGATKQRIQDQKVPYIFPDNQ [R21P], for which the protein stability index was determined as 3.15. Consider CSWKGATKQRIQDQKVPYIFIDNQ [R21I], for which the protein stability index is 2.18.

For the variant CSWKGATKQRIQDQKVPYIFTDNQ [R21T], the protein stability index was 2.99.

For CSWKGATKQRIQDQKVPYIFWDNQ [R21W], the protein stability index stood at 1.87.

In the case of CSWKGATKQRIQDQKVPYIFCDNQ [R21C], the protein stability index worked out at 2.11. The result for CSWKGATKQRIQDQKVPYIFNDNQ [R21N] reads 3.09. As to CSWKGATKQRIQDQKVPYIFMDNQ [R21M], the protein stability index was determined as 2.44. CSWKGATKQRIQDQKVPYIFKDNQ [R21K]: the protein stability index came out at 2.83. Take CSWKGATKQRIQDQKVPYIFQDNQ [R21Q]: the protein stability index came to 2.64. The result for CSWKGATKQRIQDQKVPYIFVDNQ [R21V] reads 1.96. On to CSWKGATKQRIQDQKVPYIFSDNQ [R21S], for which the protein stability index was found to be 3.12.

As for CSWKGATKQRIQDQKVPYIFGDNQ [R21G], the protein stability index was found to be 2.98. For CSWKGATKQRIQDQKVPYIFFDNQ [R21F], the protein stability index worked out at 2.47.

With CSWKGATKQRIQDQKVPYIFEDNQ [R21E], the protein stability index turned out to be 3.68.
